# According to patent publication US20200270360A1 (ANGIEX, published 2020):
# T1: human TM4SF1 (transmembrane-4 L six family member-1) (human, UniProt P30408 1-202)
# T1 construct: also called hTM4SF1
# T1 sequence: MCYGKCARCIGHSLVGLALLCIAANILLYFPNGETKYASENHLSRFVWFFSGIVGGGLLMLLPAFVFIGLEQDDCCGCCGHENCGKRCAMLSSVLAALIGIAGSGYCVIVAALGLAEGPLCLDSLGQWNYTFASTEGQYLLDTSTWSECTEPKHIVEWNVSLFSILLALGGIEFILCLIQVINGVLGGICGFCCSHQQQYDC
# Columns and labels:
# [1] = molecular target: T1, human TM4SF1 (transmembrane-4 L six …); experiment: flow cytometry on MDA-MB-468 and HLMEC cells
# [2] = molecular target: T1, human TM4SF1 (transmembrane-4 L six …); experiment: flow cytometry (MFI) on HUVEC
Binder,EC50 [2],concentration that saturates cell surface TM4SF1 binding [1]
"anti-TM4SF1 antibody AGX-A01 (antibody, V domains shown, also called 8G4; AGX-01) VH: EVILVESGGGLVKPGGSLKLSCAASGFTFSSFAMSWVRQTPEKRLEWVATISSGSIYIYYTDGVKGRFTISRDNAKNTVHLQMSSLRSEDTAMYYCARRGIYYGYDGYAMDYWGQGTSVTVS VL: AVVMTQTPLSLPVSLGDQASISCRSSQSLVHSNGNTYLHWYMQKPGQSPKVLIYKVSNRFSGVPDRFSGSGSGTDFTLKISRVEADDLGIYFCSQSTHIPLAFGAGTKLELK",–,10000 ng/mL
"humanized AGX-A01 (antibody, human IgG1, kappa, V domains shown, also called h AGX-A01 H1L10; h AGX-A01) VH: EVQLVESGGGLVKPGGSLRLSCAASGFTFSSFAMSWVRQAPGKGLEWVSTISSGSIYIYYTDGVKGRFTISRDNAKNSLYLQMNSLRAEDTAVYYCARRGIYYGYDGYAMDYWGQGTLVTVSS VL: AIVLTQSPGTLSLSPGERATLSCRSSQSLVHSNGNTYLHWYMQKPGQAPRVLIYKVSNRFSGIPDRFSGSGSGTDFTLTISRLEPDDFAIYYCSQSTHIPLAFGQGTKLEIKR",3.03 nM,–
"humanized mutated (hm) AGX-A07 H2L5 V1 (antibody, human IgG1, kappa, V domains shown, Full heavy and light chains) VH: EVQLVQSGAEVKKPGASVKVSCKASGYTFTNYGVKWVRQAPGQGLEWMGWINTYTGNPIYAADFKGRVTMTTDTSTSTAYMELRSLRSDDTAVYYCVRFQYGDYRYFDVWGQGTLVTVSS VL: EIVLTQSPATLSLSPGERATLSCRANSGISFINWYQQKPGQAPRLLIYGTANLASGIPARFSGSGSGRDFTLTISSLEPEDFAVYYCQQWSSNPLTFGGGTKVEIKR",1.58 nM,–
"humanized AGX-A07 H2L5 (antibody, human IgG1, kappa, V domains shown, Full heavy and light chains; also called h AGX-A07 H2L5; hAGX-A07 H2L5) VH: QVQLVQSGAEVKKPGASVKVSCKASGYTFTNYGVKWVRQAPGQDLEWMGWINTYTGNPIYAADFKGRVTMTTDTSTSTAFMELRSLRSDDTAVYYCVRFQYGDYRYFDVWGQGTLVTVSS VL: EIILTQSPATLSLSPGERATLSCRANSGISFINWYQQKPGQAPRLLIYGTANLASGIPARFGGSGSGRDFTLTISSLEPEDFAVYYCQQWSSNPLTFGGGTKVEIKR",1.53 nM,–

# Further binders by falling EC50 [2], results first:
EC50 [2],Binder,concentration that saturates cell surface TM4SF1 binding [1]
46.1 nM,"humanized mutated (hm) AGX-A07 H2L5 V4 (antibody, human IgG1, kappa, V domains shown, Full heavy and light chains; also called hm AGX-A07 V4) VH: EVQLVQSGAEVKKPGASVKVSCKASGYTFTNYGVKWVRQAPGQGLEWMGWINTYTGNPIYAADFKGRVTMTTDTSTSTAYMELRSLRSDDTAVYYCVRFQYGDYRYFDVWGQGTLVTVSS VL: EIVLTQSPATLSLSPGERATLSCRAQSGISFINWYQQKPGQAPRLLIYGTANLASGIPARFSGSGSGRDFTLTISSLEPEDFAVYYCQQYSSNPLTFGGGTKVEIKR",–
4.19 nM,"humanized mutated (hm) AGX-A07 H2L5 V3 (antibody, human IgG1, kappa, V domains shown, Full heavy and light chains) VH: EVQLVQSGAEVKKPGASVKVSCKASGYTFTNYGVKWVRQAPGQGLEWMGWINTYTGNPIYAADFKGRVTMTTDTSTSTAYMELRSLRSDDTAVYYCVRFQYGDYRYFDVWGQGTLVTVSS VL: EIVLTQSPATLSLSPGERATLSCRANSGISFINWYQQKPGQAPRLLIYGTANLASGIPARFSGSGSGRDFTLTISSLEPEDFAVYYCQQYSSNPLTFGGGTKVEIKR",–
1.64 nM,"humanized mutated (hm) AGX-A07 H2L5 V2 (antibody, human IgG1, kappa, V domains shown, Full heavy and light chains; also called AGX-A07 H2v1L5v2) VH: EVQLVQSGAEVKKPGASVKVSCKASGYTFTNYGVKWVRQAPGQGLEWMGWINTYTGNPIYAADFKGRVTMTTDTSTSTAYMELRSLRSDDTAVYYCVRFQYGDYRYFDVWGQGTLVTVSS VL: EIVLTQSPATLSLSPGERATLSCRAQSGISFINWYQQKPGQAPRLLIYGTANLASGIPARFSGSGSGRDFTLTISSLEPEDFAVYYCQQWSSNPLTFGGGTKVEIKR",–
